Test results: publication PMC5614552 (Biochemistry and Biophysics Reports, 2016)

Biological target: human CD34 protein (Fc tag; Sino Biological Incorporation) (Homo sapiens, UniProt P28906)
Test: SPR

Sequence of human CD34 protein (Fc tag; Sino Biological Incorporation) (P28906 32-290): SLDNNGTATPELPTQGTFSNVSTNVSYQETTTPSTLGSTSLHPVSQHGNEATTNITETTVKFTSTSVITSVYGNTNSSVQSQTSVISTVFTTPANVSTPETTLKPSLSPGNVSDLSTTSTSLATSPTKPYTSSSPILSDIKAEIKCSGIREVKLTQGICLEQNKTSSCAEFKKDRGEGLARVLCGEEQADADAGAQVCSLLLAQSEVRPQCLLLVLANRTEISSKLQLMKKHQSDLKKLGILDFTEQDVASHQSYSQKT

Kd: 14.7 nM
koff: 0.000262 s⁻¹
kon: 17800 M⁻¹ s⁻¹
B1: Chimeric QBEND/10 (antibody, V domains shown)
VH: QVQLEQSGPELVKPGASVKMSCKASGYTFTSYVIHWVKQKPGQGLEWLGYTNPYNDVTKYNEKFKFKATLTSDKQSTTAYMEFSSLTSEDSAVYYCARYGGLWLYAMDYWGQGTSVTVSS
VL: QLVLTQSSSASFSLGASAKLTCTLSSQHRTFTIEWYQQQPLKPPKYVMELRKDGSHSTGDGIPDRFSGSSSGADRYLSISNIQPEDEAIYICGVGNTIKEQFVYVFGGGTKVTVL
